Data on 28 molecules can be found in patent US20260098059A1 (ENDOMET BIOSCIENCES, published 2026).

In assay [1] the target is T1, β-catenin (UniProt P35222 134-665, limits assumed, biotinylated in the SPR and plate assays).
T1 construct: also called beta catenin; biotinylated β-catenin
T1 sequence (looked up): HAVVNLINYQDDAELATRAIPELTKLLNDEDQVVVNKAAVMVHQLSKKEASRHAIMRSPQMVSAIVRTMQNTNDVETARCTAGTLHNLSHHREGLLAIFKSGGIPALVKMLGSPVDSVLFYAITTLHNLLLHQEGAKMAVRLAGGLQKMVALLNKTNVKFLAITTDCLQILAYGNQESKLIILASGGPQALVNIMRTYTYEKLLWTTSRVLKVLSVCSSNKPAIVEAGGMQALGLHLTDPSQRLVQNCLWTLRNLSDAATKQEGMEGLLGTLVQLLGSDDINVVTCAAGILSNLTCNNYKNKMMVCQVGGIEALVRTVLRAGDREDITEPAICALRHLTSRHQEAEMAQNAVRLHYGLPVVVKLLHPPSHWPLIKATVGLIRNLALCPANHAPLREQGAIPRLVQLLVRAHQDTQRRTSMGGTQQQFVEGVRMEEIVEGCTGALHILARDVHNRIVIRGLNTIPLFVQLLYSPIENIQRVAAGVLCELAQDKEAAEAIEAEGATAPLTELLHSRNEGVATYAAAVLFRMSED
In words: competitive FP. In outline: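 Competitive fluorescence polarization with inhibitor peptide serially diluted from 10 nM to 30 uM; polarization read at 470 nm excitation, 520 nm emission. Experiments performed three times.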

Assay [2] addresses T1, β-catenin. In words: cell-based or functional assay.

“And” between values parts separate entries of the source, which are not always exact repeats. Identical values can stand only once. Where no end group is shown, it is not given here. [ ]: non-standard residue; d: D form. αMeW = C[C@](N)(Cc1c[nH]c2ccccc12)C(=O)O; αMeF = C[C@](N)(Cc1ccccc1)C(=O)O; 2Pal = N[C@@H](Cc1ccccn1)C(=O)O; αMeS = C[C@](N)(CO)C(=O)O

Regarding H-MWFLICFWG-OH [SEQ ID NO: 42], the Kd with β-catenin [1] was ≤ 0.4 µM. Further, the “Wnt Reporter EC50” value with β-catenin [2] is ≤ 7.5 µM.

For the molecule H-MWILISSWG-OH [SEQ ID NO: 129], in the assay with β-catenin [1], the Kd was > 0.4 µM and ≤ 1 µM. For the same molecule, the “Wnt Reporter EC50” value with β-catenin [2] was ≤ 7.5 µM.

In the case of H-MWILISFWG-OH [SEQ ID NO: 43], in the assay with β-catenin [1], the Kd is > 0.4 µM and ≤ 1 µM. Also, the “Wnt Reporter EC50” value with β-catenin [2] is ≤ 7.5 µM.

For H-MWILICFWG-OH [SEQ ID NO: 116], the Kd with β-catenin [1] was > 0.4 µM and ≤ 1 µM. The “Wnt Reporter EC50” value with β-catenin [2] is ≤ 7.5 µM.

B1: SEQ ID NO: 182 (peptide)
peptide: KWILISFWE
HELM: PEPTIDE1{K.W.I.L.I.S.F.W.E}$PEPTIDE1,PEPTIDE1,1:R3-9:R3$$$V2.0
SMILES: CC[C@H](C)[C@@H]1NC(=O)[C@H](CC(C)C)NC(=O)[C@H]([C@@H](C)CC)NC(=O)[C@H](Cc2c[nH]c3ccccc23)NC(=O)[C@@H](N)CCCCNC(=O)CC[C@@H](C(=O)O)NC(=O)[C@H](Cc2c[nH]c3ccccc23)NC(=O)[C@H](Cc2ccccc2)NC(=O)[C@H](CO)NC1=O
B1: in the assay with β-catenin [1], the Kd was > 0.4 µM and ≤ 1 µM. In addition, the “Wnt Reporter EC50” value with β-catenin [2] was > 22.5 µM and ≤ 30 µM.

With Ac-MWILISFWG-OH [SEQ ID NO: 165], in the assay with β-catenin [1], the Kd was ≤ 0.4 µM. Moreover, in the assay with β-catenin [2], the “Wnt Reporter EC50” value was ≤ 7.5 µM.

Turning to H-MWILIS[αMeF]WG-OH [SEQ ID NO: 128], the Kd with β-catenin [1] is > 0.4 µM and ≤ 1 µM. For the same molecule, the “Wnt Reporter EC50” value with β-catenin [2] is > 7.5 µM and ≤ 15 µM.

As to H-WWILISFWG-OH [SEQ ID NO: 127], the Kd in the assay with β-catenin [1] was > 0.4 µM and ≤ 1 µM. Also, in the assay with β-catenin [2], the “Wnt Reporter EC50” value was > 7.5 µM and ≤ 15 µM.

For H-HWILISFWG-OH [SEQ ID NO: 126], the Kd with β-catenin [1] is ≤ 0.4 µM. For the same molecule, the “Wnt Reporter EC50” value with β-catenin [2] is ≤ 7.5 µM.

Take H-KWILISFWG-OH [SEQ ID NO: 125]: the dissociation constant (Kd) with β-catenin [1] is > 0.4 µM and ≤ 1 µM. Besides, the “Wnt Reporter EC50” value with β-catenin [2] was > 22.5 µM and ≤ 30 µM.

In the case of H-M[αMeW]ILICFWG-OH [SEQ ID NO: 132], in the assay with β-catenin [1], the Kd is ≤ 0.4 µM. For the same molecule, the “Wnt Reporter EC50” value with β-catenin [2] is > 7.5 µM and ≤ 15 µM.

Take H-MWFLIQFYG-OH [SEQ ID NO: 149]: the Kd with β-catenin [1] is > 0.4 µM and ≤ 1 µM. The “Wnt Reporter EC50” value with β-catenin [2] is > 7.5 µM and ≤ 15 µM.

On to H-MWFLIKFYG-OH [SEQ ID NO: 151], for which, in the assay with β-catenin [1], the dissociation constant Kd was > 0.4 µM and ≤ 1 µM. The “Wnt Reporter EC50” value in the assay with β-catenin [2] was > 15 µM and ≤ 22.5 µM.

In the case of H-MWFLIC[2Pal]WG-OH [SEQ ID NO: 148], in the assay with β-catenin [1], the Kd was > 0.4 µM and ≤ 1 µM. Further, the “Wnt Reporter EC50” value with β-catenin [2] is > 7.5 µM and ≤ 15 µM.

As for H-MWILI[dT]FWG-OH [SEQ ID NO: 137], the equilibrium dissociation constant (Kd) in the assay with β-catenin [1] is > 0.4 µM and ≤ 1 µM. Further, the “Wnt Reporter EC50” value with β-catenin [2] is > 15 µM and ≤ 22.5 µM.

B2: SEQ ID NO: 184 (peptide)
peptide: KWILISAWE
HELM: PEPTIDE1{K.W.I.L.I.S.A.W.E}$PEPTIDE1,PEPTIDE1,1:R3-9:R3$$$V2.0
SMILES: CC[C@H](C)[C@@H]1NC(=O)[C@H](CC(C)C)NC(=O)[C@H]([C@@H](C)CC)NC(=O)[C@H](Cc2c[nH]c3ccccc23)NC(=O)[C@@H](N)CCCCNC(=O)CC[C@@H](C(=O)O)NC(=O)[C@H](Cc2c[nH]c3ccccc23)NC(=O)[C@H](C)NC(=O)[C@H](CO)NC1=O
Take B2: the Kd with β-catenin [1] is > 10 µM and ≤ 30 µM. Also, in the assay with β-catenin [2], the “Wnt Reporter EC50” value is ≤ 7.5 µM.

Turning to H-MWILI[αMeS]FWG-OH [SEQ ID NO: 136], the Kd with β-catenin [1] was > 0.4 µM and ≤ 1 µM. The “Wnt Reporter EC50” value with β-catenin [2] was > 30 µM.

With H-MW[αMeF]LICFWG-OH [SEQ ID NO: 131], the Kd in the assay with β-catenin [1] is ≤ 0.4 µM. The “Wnt Reporter EC50” value in the assay with β-catenin [2] was > 7.5 µM and ≤ 15 µM.

B3: SEQ ID NO: 164 (peptide)
peptide: LWFLICFWG
HELM: PEPTIDE1{[Nle].W.F.L.I.C.F.W.G}$$$$V2.0
SMILES: CCCC[C@H](N)C(=O)N[C@@H](Cc1c[nH]c2ccccc12)C(=O)N[C@@H](Cc1ccccc1)C(=O)N[C@@H](CC(C)C)C(=O)N[C@H](C(=O)N[C@@H](CS)C(=O)N[C@@H](Cc1ccccc1)C(=O)N[C@@H](Cc1c[nH]c2ccccc12)C(=O)NCC(=O)O)[C@@H](C)CC
As to B3, the Kd in the assay with β-catenin [1] was > 0.4 µM and ≤ 1 µM. Besides, in the assay with β-catenin [2], the “Wnt Reporter EC50” value was ≤ 7.5 µM.

H-DWFLICFWG-OH [SEQ ID NO: 142]: the Kd with β-catenin [1] was ≤ 0.4 µM. In addition, the “Wnt Reporter EC50” value with β-catenin [2] was ≤ 7.5 µM.

In the case of H-MWILIC[αMeF]WG-OH [SEQ ID NO: 121], the Kd with β-catenin [1] was ≤ 0.4 µM. For the same molecule, in the assay with β-catenin [2], the “Wnt Reporter EC50” value is ≤ 7.5 µM.

Consider MWFLISFWG-NH2 [SEQ ID NO: 108], for which, in the assay with β-catenin [1], the Kd was > 0.4 µM and ≤ 1 µM. For the same molecule, the “Wnt Reporter EC50” value with β-catenin [2] is > 7.5 µM and ≤ 15 µM.

For H-MWFLISFW-OH [SEQ ID NO: 112], the Kd with β-catenin [1] was > 0.4 µM and ≤ 1 µM. Also, the “Wnt Reporter EC50” value with β-catenin [2] was ≤ 7.5 µM.

For the molecule H-KMWILISFWG-OH [SEQ ID NO: 122], the Kd with β-catenin [1] was ≤ 0.4 µM. For the same molecule, in the assay with β-catenin [2], the “Wnt Reporter EC50” value was > 22.5 µM and ≤ 30 µM.

B4: SEQ ID NO: 186 (peptide)
peptide: KMWFLICFWE
HELM: PEPTIDE1{[ac].K.M.W.F.L.I.C.F.W.E}$PEPTIDE1,PEPTIDE1,2:R3-11:R3$$$V2.0
SMILES: CC[C@H](C)[C@@H]1NC(=O)[C@H](CC(C)C)NC(=O)[C@H](Cc2ccccc2)NC(=O)[C@H](Cc2c[nH]c3ccccc23)NC(=O)[C@H](CCSC)NC(=O)[C@@H](NC(C)=O)CCCCNC(=O)CC[C@@H](C(=O)O)NC(=O)[C@H](Cc2c[nH]c3ccccc23)NC(=O)[C@H](Cc2ccccc2)NC(=O)[C@H](CS)NC1=O
Consider B4, for which the Kd in the assay with β-catenin [1] was > 0.4 µM and ≤ 1 µM. For the same molecule, in the assay with β-catenin [2], the “Wnt Reporter EC50” value is > 30 µM.

In the case of H-HMWILISFWG-OH [SEQ ID NO: 123], in the assay with β-catenin [1], the Kd is ≤ 0.4 µM. Besides, the “Wnt Reporter EC50” value in the assay with β-catenin [2] was ≤ 7.5 µM.

Consider H-MWE[αMeS]ILDEHVQRVWG-NH2 [SEQ ID NO: 35], for which, in the assay with β-catenin [1], the Kd is ≤ 0.4 µM. Also, in the assay with β-catenin [2], the “Wnt Reporter EC50” value was > 30 µM.

B5: SEQ ID NO: 111 (peptide)
peptide: WFLISFW
HELM: PEPTIDE1{[meW].F.L.I.S.F.W}$$$$V2.0
SMILES: CC[C@H](C)[C@H](NC(=O)[C@H](CC(C)C)NC(=O)[C@H](Cc1ccccc1)NC(=O)[C@H](Cc1c[nH]c2ccccc12)NC)C(=O)N[C@@H](CO)C(=O)N[C@@H](Cc1ccccc1)C(=O)N[C@@H](Cc1c[nH]c2ccccc12)C(=O)O
Regarding B5, in the assay with β-catenin [1], the Kd is > 0.4 µM and ≤ 1 µM. Also, the “Wnt Reporter EC50” value with β-catenin [2] was > 7.5 µM and ≤ 15 µM.
